Measured values taken from patent US20230242646A1 (JJP BIOLOGICS SP Z O O, published 2023).
Values joined by “and” are separate entries in the source; they are usually repeats but may differ in a detail not shown here. Identical values can stand only once.

Experiments:
[1] = molecular target: T1, membrane-bound full-length human CD89 on HEK293F cells (human, UniProt P24071 22-287); assay: FACS HEK293F-huCD89; inhibition of serum human IgA binding
T1 construct: 2 or transient transfectants; also called membrane human CD89; human FcaRI
Experimental: (§1) After extensive washing in PBS/BSA/NaN₃, 1:200 diluted PE-conjugated streptavidin (Jackson ImmunoResearch) was added, and incubated for 30 minutes at 4° C. After extensive washing in PBS/BSA/NaN₃, cells were fixed in 4% formaldehyde in PBS/BSA/NaN₃ for 30 minutes at 4° C.

[2] = molecular target: T2, recombinant C-terminal polyhistidine-tagged human (extracellular) CD89 (Sino Biological) (human, UniProt P24071 22-227); assay: ELISA, coated rhuCD89
T2 construct: extracellular domain; bought protein; also called rhuCD89; soluble monomeric rhuCD89
Experimental: After extensive washing with PBS/0.05% Tween 20, plates were blocked with PBS/0.05% Tween 20/1% BSA (Roche) for 1 hour at RT. Subsequently, plates were incubated with 50 µL titrated (in block buffer) purified mouse anti-human CD89 antibody/well for 1 hour at RT. […] After extensive washing in PBS/0.05% Tween 20, binding of antibodies on rhuCD89 was determined with 1:5,000 diluted horseradish peroxidase (HRP)-conjugated goat anti-mouse IgG Fcy-specific antibodies (Jackson ImmunoResearch) for 1 hour at RT, followed by a ready-to-use solution of TMB substrate (Invitrogen) for colorimetric detection.
After extensive washing with PBS/0.05% Tween 20, plates were blocked with PBS/0.05% Tween 20/1% BSA (Roche) for 1 hour at RT. […] After extensive washing in PBS/0.05% Tween 20, binding of antibodies on rhuCD89 was determined with 1:5,000 diluted horseradish peroxidase (HRP)-conjugated goat anti-human IgG Fcy-specific antibodies (Jackson ImmunoResearch) for 1 hour at RT, followed by a ready-to-use solution of TMB substrate (Invitrogen) for colorimetric detection.

[3] = molecular target: T2, recombinant C-terminal …; assay: ELISA, coated rhuCD89, purified Ab
Experimental: After extensive washing with PBS/0.05% Tween 20, plates were blocked with PBS/0.05% Tween 20/1% BSA (Roche) for 1 hour at RT. […] After extensive washing in PBS/0.05% Tween 20, binding of antibodies on rhuCD89 was determined with 1:5,000 diluted horseradish peroxidase (HRP)-conjugated goat anti-human IgG Fcγ-specific antibodies (Jackson ImmunoResearch) for 1 hour at RT, followed by a ready-to-use solution of TMB substrate (Invitrogen) for colorimetric detection. After adding 1 M HCL, binding (optical density) of antibodies on rhuCD89 was measured at wavelength of 450 nm (reference wavelength of 655 nm) using a microplate reader (Synergy HTX; BioTek).

[4] = molecular target: T1, membrane-bound full-length human CD89 …; assay: FACS HEK293F-huCD89; inhibition of secretory human IgA binding
Experimental: as §1

[5] = molecular target: T2, recombinant C-terminal …; assay: BLI (Octet RED96), biotinylated Ab on streptavidin tips, rhuCD89 analyte, 1:1 model
Experimental: Equilibrium dissociation constants (KD) were determined using a 1:1 Langmuir binding model in Octet® RED96 software (ForteBio).

[6] = molecular target: T1, membrane-bound full-length human CD89 …; assay: FACS HEK293F-huCD89, purified Ab
Experimental: After extensive washing in PBS/BSA/NaN₃, cells were subsequently incubated with 1:200 diluted PE-conjugated goat anti-human IgG Fcγ-specific antibodies (Jackson ImmunoResearch) for 30 minutes at 4° C. After extensive washing in PBS/BSA/NaN₃, cells were fixed in 4% formaldehyde in PBS/BSA/NaN₃ for 30 minutes at 4° C.

[7] = molecular target: T1, membrane-bound full-length human CD89 …; assay: FACS HEK293F-huCD89
Experimental: After extensive washing in PBS/BSA/NaN₃, cells were subsequently incubated with 1:200 diluted PE-conjugated goat anti-human IgG Fcy-specific antibodies (Jackson ImmunoResearch) for 30 minutes at 4° C. After extensive washing in PBS/BSA/NaN₃, cells were fixed in 2% formaldehyde in PBS/BSA/NaN₃ for 30 minutes at 4° C.

[8] = molecular target: T1, membrane-bound full-length human CD89 …; assay: FACS, antibody before heat-aggregated serum IgA on HEK293F-huCD89; IgA detected
[9] = molecular target: T1, membrane-bound full-length human CD89 …; assay: FACS, antibody before secretory IgA on HEK293F-huCD89; IgA detected
[10] = molecular target: T1, membrane-bound full-length human CD89 …; assay: FACS, antibody before non-aggregated serum IgA on HEK293F-huCD89; IgA detected
[11] = molecular target: T2, recombinant C-terminal …; assay: ELISA on plate-coated rhuCD89; titrated supernatant; HRP goat anti-human IgG Fc detection, OD 450 nm [VL3]
[12] = molecular target: T2, recombinant C-terminal …; assay: ELISA on plate-coated rhuCD89; titrated supernatant; HRP goat anti-human IgG Fc detection, OD 450 nm [VL4]

B1: CD89/IgA blocking chimeric mouse/human IgG4/kappa anti-human CD89 antibody 10E7 (antibody)
heavy: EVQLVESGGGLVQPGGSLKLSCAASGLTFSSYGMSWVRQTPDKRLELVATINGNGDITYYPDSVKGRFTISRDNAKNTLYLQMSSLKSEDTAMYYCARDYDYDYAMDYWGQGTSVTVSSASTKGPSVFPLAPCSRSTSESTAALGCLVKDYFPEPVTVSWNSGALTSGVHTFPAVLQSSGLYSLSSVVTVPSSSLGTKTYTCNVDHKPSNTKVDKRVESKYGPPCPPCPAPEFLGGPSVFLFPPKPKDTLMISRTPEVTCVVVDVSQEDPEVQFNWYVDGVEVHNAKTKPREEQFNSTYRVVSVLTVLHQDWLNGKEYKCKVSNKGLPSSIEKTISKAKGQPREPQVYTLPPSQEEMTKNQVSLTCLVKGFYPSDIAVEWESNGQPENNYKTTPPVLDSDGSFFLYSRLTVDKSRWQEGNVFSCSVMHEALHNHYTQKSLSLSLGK
light: DIQMTQSTSSLSASLGDSVTISCRASQDIINYLNWYQQKPDGTVKLLIYYTSRLHSGVPSRFSGSGSGTEYSLTVSNLEKEDIATYFCQQGKTLPYTFGGGTKLEIKRTVAAPSVFIFPPSDEQLKSGTASVVCLLNNFYPREAKVQWKVDNALQSGNSQESVTEQDSKDSTYSLSSTLTLSKADYEKHKVYACEVTHQGLSSPVTKSFNRGEC
notes: stabilized (S239P) human IgG4; biotinylated in the Octet assay; also called chimeric 10E7; chimer IgG4/k 10E7
B1 was tested, and the IC50 [1] was ~1.6 µg/mL, the EC50 [2] was 0.016 µg/mL and ~0.02 µg/mL and the EC50 [3] was ~0.01 µg/mL. It also gave an IC50 [4] of ~1 µg/mL, a Kd [5] of 1.28 nM and a koff [5] of 0.00106 s⁻¹. The kon [5] was 832000 M⁻¹ s⁻¹, the EC50 [6] was ~1.3 µg/mL and the EC50 [7] was 1.25 µg/mL and ~1 µg/mL.

B2: CD89/IgA blocking chimeric mouse/human IgG4/kappa anti-human CD89 antibody 20B4 (antibody)
heavy: not shown
light: DILMTQSPSSMSVSLGDTVSITCHASQDISRNIGWLQQKPGKSFKGLIYHGTNLEDGVPSRFSGSGSGADYSLTISSLESEDFADYYCVQYAQFPRTFGGGTKLEIKRTVAAPSVFIFPPSDEQLKSGTASVVCLLNNFYPREAKVQWKVDNALQSGNSQESVTEQDSKDSTYSLSSTLTLSKADYEKHKVYACEVTHQGLSSPVTKSFNRGEC
notes: stabilized (S239P) human IgG4; also called chimeric 20B4
Work on B2 yielded an EC50 [2] of 0.009 µg/mL and an EC50 [7] of 0.296 µg/mL.

B3: CD89/IgA blocking chimeric mouse/human IgG4/kappa anti-human CD89 antibody 30C7 (antibody)
heavy: not shown
light: DIVMSQSPSSLAVSAGEKVTMSCKSSQSLLNSRTRKNYLAWYQQKPGQSPKLLIYWASTRESGVPDRFTGSGSGTDFTLTISSVQAEDLAVYYCKQSYNLMYTFGGGTKLEIKRTVAAPSVFIFPPSDEQLKSGTASVVCLLNNFYPREAKVQWKVDNALQSGNSQESVTEQDSKDSTYSLSSTLTLSKADYEKHKVYACEVTHQGLSSPVTKSFNRGEC
notes: stabilized (S239P) human IgG4; also called chimeric 30C7
In the case of B3, the “IC50 (read off the curve)” value [8] is reported as ~0.8 µg/mL, the “IC50 (read off the curve)” value [9] is reported as ~1 µg/mL and the “IC50 (read off the curve)” value [10] is reported as ~0.9 µg/mL.

B4: CD89/IgA blocking chimeric mouse/human IgG4/kappa anti-human CD89 antibody 16D6 (antibody)
heavy: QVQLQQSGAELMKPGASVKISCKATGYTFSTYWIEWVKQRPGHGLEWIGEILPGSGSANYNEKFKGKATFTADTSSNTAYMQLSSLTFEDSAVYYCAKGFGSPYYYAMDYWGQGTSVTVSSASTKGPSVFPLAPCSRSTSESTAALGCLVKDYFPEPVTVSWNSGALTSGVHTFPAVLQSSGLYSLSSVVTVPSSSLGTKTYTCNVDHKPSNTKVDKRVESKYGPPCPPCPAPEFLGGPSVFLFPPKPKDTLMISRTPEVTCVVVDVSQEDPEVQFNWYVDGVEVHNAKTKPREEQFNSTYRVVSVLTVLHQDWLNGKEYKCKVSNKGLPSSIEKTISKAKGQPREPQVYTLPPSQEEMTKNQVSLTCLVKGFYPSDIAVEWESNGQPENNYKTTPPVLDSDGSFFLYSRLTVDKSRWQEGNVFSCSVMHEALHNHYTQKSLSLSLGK
light: EIVLTQSPALMAASPGEKVTITCSVSSSISSSNLHWYQQKSETSPKPWIYGTSKLASGVPVRFSGSGSGTSYSLTISNMEAEDAATYYCQQWSSFPLTFGGGTKLEIKRTVAAPSVFIFPPSDEQLKSGTASVVCLLNNFYPREAKVQWKVDNALQSGNSQESVTEQDSKDSTYSLSSTLTLSKADYEKHKVYACEVTHQGLSSPVTKSFNRGEC
notes: stabilized (S239P) human IgG4; also called chimeric 16D6
With B4 the EC50 [2] was 0.108 µg/mL and the EC50 [7] was 1.79 µg/mL.

B5: CD89/IgA blocking chimeric mouse/human IgG4/kappa anti-human CD89 antibody 8F3 (antibody)
heavy: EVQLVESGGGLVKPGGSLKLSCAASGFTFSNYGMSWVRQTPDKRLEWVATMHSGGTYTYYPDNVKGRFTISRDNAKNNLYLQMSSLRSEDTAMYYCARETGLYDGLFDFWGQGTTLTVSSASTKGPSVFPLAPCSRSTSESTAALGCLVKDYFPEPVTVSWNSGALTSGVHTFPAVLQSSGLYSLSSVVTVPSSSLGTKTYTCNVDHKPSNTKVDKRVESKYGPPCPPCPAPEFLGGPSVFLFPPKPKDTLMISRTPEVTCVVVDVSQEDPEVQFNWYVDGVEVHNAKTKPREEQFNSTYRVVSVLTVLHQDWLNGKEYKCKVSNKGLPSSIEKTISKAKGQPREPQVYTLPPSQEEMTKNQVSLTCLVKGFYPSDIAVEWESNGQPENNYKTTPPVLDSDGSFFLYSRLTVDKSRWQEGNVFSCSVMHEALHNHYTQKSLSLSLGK
light: DVQITQSPSYLAASPGETITINCRASKTISKYLAWYQEKPGKTNMLLIYSGSTLQSGVPSRFSGSGSGTDFTLTISSLEPEDLAMYYCQQHDEYPWTFGGGTKLEIKRTVAAPSVFIFPPSDEQLKSGTASVVCLLNNFYPREAKVQWKVDNALQSGNSQESVTEQDSKDSTYSLSSTLTLSKADYEKHKVYACEVTHQGLSSPVTKSFNRGEC
notes: stabilized (S239P) human IgG4; also called chimeric 8F3
For B5, the “IC50 (read off the curve)” value [8] was ~1 µg/mL, the EC50 [2] was 0.031 µg/mL and the EC50 [7] was 1.32 µg/mL. The “IC50 (read off the curve)” value [9] was ~1 µg/mL and the “IC50 (read off the curve)” value [10] was ~1 µg/mL.

B6: humanized IgG4/kappa anti-human CD89 monoclonal antibody 10E7 version VH2VL3 (antibody)
heavy: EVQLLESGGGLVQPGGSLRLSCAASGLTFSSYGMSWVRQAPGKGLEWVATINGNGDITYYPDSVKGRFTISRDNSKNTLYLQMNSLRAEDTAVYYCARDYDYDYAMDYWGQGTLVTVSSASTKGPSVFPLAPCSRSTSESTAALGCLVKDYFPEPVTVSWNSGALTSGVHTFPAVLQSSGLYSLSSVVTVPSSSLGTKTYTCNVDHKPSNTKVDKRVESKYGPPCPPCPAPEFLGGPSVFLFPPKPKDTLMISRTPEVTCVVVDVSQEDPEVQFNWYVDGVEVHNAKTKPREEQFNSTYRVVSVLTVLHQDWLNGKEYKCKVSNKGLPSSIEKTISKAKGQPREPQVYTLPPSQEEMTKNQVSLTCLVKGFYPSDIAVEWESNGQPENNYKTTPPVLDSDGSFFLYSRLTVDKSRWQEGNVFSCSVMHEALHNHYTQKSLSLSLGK
light: DIQMTQSPSSLSASVGDRVTITCRASQDIINYLNWYQQKPGKAVKLLIYYTSRLHSGVPSRFSGSGSGTDYTLTISSLQPEDFATYYCQQGKTLPYTFGQGTKLEIKRTVAAPSVFIFPPSDEQLKSGTASVVCLLNNFYPREAKVQWKVDNALQSGNSQESVTEQDSKDSTYSLSSTLTLSKADYEKHKVYACEVTHQGLSSPVTKSFNRGEC
notes: tested as supernatant; signal peptide end derived as for m17
In the case of B6, the “EC50 (read off the curve)” value [11] is reported as ~0.04 µg/mL.

B7: humanized IgG4/kappa anti-human CD89 monoclonal antibody 10E7 version VH2VL4 (antibody)
heavy: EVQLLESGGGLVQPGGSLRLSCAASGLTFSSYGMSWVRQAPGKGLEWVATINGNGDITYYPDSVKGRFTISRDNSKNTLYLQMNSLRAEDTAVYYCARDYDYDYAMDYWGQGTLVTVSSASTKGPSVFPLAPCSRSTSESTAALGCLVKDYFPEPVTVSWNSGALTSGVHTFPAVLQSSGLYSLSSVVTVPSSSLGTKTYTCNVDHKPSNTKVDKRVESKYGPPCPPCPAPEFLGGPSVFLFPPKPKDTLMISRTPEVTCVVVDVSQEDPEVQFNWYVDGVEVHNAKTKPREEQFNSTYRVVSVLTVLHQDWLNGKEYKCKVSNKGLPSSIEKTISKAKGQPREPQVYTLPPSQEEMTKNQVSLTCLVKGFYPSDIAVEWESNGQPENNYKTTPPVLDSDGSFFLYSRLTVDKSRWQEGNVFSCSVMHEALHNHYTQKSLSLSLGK
light: DIQMTQSPSSLSASVGDRVTITCRASQDIINYLNWYQQKPGKTVKLLIYYTSRLHSGVPSRFSGSGSGTDYTLTISSLQPEDFATYFCQQGKTLPYTFGQGTKLEIKRTVAAPSVFIFPPSDEQLKSGTASVVCLLNNFYPREAKVQWKVDNALQSGNSQESVTEQDSKDSTYSLSSTLTLSKADYEKHKVYACEVTHQGLSSPVTKSFNRGEC
notes: as for B6
In the case of B7, the “EC50 (read off the curve)” value [12] is reported as ~0.03 µg/mL.

B8: 'CDR2 deamidation-repaired' humanized IgG4/kappa anti-human CD89 monoclonal antibody 10E7 version VH3SQVL3 (antibody)
heavy: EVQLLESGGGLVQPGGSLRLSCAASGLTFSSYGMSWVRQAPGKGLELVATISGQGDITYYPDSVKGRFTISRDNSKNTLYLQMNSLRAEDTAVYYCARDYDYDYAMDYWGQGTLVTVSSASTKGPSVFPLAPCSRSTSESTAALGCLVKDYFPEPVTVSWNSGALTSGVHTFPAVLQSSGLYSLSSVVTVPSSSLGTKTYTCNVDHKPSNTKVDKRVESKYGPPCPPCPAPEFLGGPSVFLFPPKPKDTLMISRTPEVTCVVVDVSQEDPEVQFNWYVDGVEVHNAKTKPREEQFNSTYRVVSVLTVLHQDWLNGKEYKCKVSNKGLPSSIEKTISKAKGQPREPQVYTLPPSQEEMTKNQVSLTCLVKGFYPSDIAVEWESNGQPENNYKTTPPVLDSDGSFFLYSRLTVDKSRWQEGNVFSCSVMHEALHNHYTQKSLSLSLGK
light: DIQMTQSPSSLSASVGDRVTITCRASQDIINYLNWYQQKPGKAVKLLIYYTSRLHSGVPSRFSGSGSGTDYTLTISSLQPEDFATYYCQQGKTLPYTFGQGTKLEIKRTVAAPSVFIFPPSDEQLKSGTASVVCLLNNFYPREAKVQWKVDNALQSGNSQESVTEQDSKDSTYSLSSTLTLSKADYEKHKVYACEVTHQGLSSPVTKSFNRGEC
notes: Biotinylated in the Octet assay; also called Humanized VH3SQVL3
In the case of B8, the IC50 [1] is reported as ~0.9 µg/mL, the EC50 [3] is reported as ~0.01 µg/mL and the IC50 [4] is reported as ~0.6 µg/mL. It also gave a Kd [5] of 0.82 nM, a koff [5] of 0.000941 s⁻¹ and a kon [5] of 1.15e+06 M⁻¹ s⁻¹. It also gave an EC50 [6] of ~0.6 µg/mL.

B9: humanized IgG4/kappa anti-human CD89 monoclonal antibody 10E7 version VH1VL3 (antibody)
heavy: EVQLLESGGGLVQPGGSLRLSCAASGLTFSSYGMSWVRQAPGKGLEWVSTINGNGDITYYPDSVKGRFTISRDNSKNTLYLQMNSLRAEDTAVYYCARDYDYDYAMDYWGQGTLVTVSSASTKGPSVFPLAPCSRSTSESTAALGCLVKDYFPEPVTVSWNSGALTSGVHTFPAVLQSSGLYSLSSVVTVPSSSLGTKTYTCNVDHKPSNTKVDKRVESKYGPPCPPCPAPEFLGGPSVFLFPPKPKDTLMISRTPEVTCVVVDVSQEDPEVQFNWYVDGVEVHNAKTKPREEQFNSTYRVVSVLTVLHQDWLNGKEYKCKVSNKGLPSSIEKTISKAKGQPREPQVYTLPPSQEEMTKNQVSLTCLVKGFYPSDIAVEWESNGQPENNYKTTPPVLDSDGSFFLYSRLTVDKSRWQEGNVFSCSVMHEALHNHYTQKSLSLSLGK
light: DIQMTQSPSSLSASVGDRVTITCRASQDIINYLNWYQQKPGKAVKLLIYYTSRLHSGVPSRFSGSGSGTDYTLTISSLQPEDFATYYCQQGKTLPYTFGQGTKLEIKRTVAAPSVFIFPPSDEQLKSGTASVVCLLNNFYPREAKVQWKVDNALQSGNSQESVTEQDSKDSTYSLSSTLTLSKADYEKHKVYACEVTHQGLSSPVTKSFNRGEC
notes: as for B6
In the case of B9, the “EC50 (read off the curve)” value [11] is reported as ~0.03 µg/mL.

B10: 'CDR2 deamidation-repaired' humanized IgG4/kappa anti-human CD89 monoclonal antibody 10E7 version VH3STVL3 (antibody)
heavy: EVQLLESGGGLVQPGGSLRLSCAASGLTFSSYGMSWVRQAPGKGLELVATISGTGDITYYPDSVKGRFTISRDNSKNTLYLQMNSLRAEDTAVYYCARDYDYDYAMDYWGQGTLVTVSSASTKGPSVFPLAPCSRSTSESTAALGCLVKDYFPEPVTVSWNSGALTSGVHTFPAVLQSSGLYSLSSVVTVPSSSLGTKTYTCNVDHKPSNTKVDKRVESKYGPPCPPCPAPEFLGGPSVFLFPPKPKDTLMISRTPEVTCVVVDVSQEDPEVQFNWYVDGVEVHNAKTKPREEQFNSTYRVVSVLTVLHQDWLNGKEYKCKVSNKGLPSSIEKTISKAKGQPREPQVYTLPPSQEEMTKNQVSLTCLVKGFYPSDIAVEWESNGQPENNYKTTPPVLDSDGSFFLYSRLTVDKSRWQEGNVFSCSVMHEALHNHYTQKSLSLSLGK
light: DIQMTQSPSSLSASVGDRVTITCRASQDIINYLNWYQQKPGKAVKLLIYYTSRLHSGVPSRFSGSGSGTDYTLTISSLQPEDFATYYCQQGKTLPYTFGQGTKLEIKRTVAAPSVFIFPPSDEQLKSGTASVVCLLNNFYPREAKVQWKVDNALQSGNSQESVTEQDSKDSTYSLSSTLTLSKADYEKHKVYACEVTHQGLSSPVTKSFNRGEC
notes: Biotinylated in the Octet assay; also called Humanized VH3STVL3
For B10, the IC50 [1] was ~0.9 µg/mL, the EC50 [3] was ~0.01 µg/mL and the IC50 [4] was ~0.6 µg/mL. It also gave a Kd [5] of 0.92 nM, a koff [5] of 0.000974 s⁻¹ and a kon [5] of 1.06e+06 M⁻¹ s⁻¹. For the same binder, the EC50 [6] was ~0.6 µg/mL.

B11: humanized IgG4/kappa anti-human CD89 monoclonal antibody 10E7 version VH1VL4 (antibody)
heavy: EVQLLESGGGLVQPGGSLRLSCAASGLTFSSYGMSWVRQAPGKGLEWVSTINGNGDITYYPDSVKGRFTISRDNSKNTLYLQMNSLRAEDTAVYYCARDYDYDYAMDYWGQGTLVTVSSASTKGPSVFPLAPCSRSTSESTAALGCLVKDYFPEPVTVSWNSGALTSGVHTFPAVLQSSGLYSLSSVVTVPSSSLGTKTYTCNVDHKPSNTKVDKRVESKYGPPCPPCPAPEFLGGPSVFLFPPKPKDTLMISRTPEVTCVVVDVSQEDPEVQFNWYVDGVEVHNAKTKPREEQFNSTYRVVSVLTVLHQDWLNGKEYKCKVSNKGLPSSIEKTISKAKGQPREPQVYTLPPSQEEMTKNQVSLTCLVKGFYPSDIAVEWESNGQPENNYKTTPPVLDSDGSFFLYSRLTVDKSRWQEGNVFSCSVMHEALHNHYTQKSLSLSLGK
light: DIQMTQSPSSLSASVGDRVTITCRASQDIINYLNWYQQKPGKTVKLLIYYTSRLHSGVPSRFSGSGSGTDYTLTISSLQPEDFATYFCQQGKTLPYTFGQGTKLEIKRTVAAPSVFIFPPSDEQLKSGTASVVCLLNNFYPREAKVQWKVDNALQSGNSQESVTEQDSKDSTYSLSSTLTLSKADYEKHKVYACEVTHQGLSSPVTKSFNRGEC
notes: as for B6
With B11 the “EC50 (read off the curve)” value [12] was ~0.03 µg/mL.
